In patent US12344663 (CDR LIFE, dated 2025):
One block for each binder: values may come before it.

Key:
human complement C3 [1] = molecular target: T1, human complement C3 (human, UniProt P01024 23-1663); assay: cell-based or functional assay
human complement C3 [2] = molecular target: T1, human complement C3; assay: method not given
human C3b [3] = molecular target: T2, human C3b (human, UniProt P01024 23-667; P01024 749-1663, limits assumed); assay: method not given
T2 construct: domain: C3b; also called C3 cleavage fragments C3b
T2 sequence (P01024 23-667 limits assumed, chain 1 of 2): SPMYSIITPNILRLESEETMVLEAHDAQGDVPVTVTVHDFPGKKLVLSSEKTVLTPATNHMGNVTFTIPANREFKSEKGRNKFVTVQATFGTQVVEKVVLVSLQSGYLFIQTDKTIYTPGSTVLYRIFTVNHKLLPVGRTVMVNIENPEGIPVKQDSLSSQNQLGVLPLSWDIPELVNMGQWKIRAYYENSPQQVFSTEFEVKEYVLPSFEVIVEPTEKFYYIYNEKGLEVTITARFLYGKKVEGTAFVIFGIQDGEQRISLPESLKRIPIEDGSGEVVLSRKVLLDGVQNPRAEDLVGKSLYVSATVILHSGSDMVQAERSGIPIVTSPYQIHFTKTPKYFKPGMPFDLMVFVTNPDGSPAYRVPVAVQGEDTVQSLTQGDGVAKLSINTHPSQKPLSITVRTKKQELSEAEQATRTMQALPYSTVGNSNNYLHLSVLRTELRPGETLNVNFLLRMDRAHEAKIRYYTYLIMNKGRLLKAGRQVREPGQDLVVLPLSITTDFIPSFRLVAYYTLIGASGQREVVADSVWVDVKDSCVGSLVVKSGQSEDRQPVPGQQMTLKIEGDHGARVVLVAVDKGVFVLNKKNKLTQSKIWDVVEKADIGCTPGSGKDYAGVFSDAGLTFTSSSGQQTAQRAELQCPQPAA
T2 sequence (P01024 749-1663 limits assumed, chain 2 of 2): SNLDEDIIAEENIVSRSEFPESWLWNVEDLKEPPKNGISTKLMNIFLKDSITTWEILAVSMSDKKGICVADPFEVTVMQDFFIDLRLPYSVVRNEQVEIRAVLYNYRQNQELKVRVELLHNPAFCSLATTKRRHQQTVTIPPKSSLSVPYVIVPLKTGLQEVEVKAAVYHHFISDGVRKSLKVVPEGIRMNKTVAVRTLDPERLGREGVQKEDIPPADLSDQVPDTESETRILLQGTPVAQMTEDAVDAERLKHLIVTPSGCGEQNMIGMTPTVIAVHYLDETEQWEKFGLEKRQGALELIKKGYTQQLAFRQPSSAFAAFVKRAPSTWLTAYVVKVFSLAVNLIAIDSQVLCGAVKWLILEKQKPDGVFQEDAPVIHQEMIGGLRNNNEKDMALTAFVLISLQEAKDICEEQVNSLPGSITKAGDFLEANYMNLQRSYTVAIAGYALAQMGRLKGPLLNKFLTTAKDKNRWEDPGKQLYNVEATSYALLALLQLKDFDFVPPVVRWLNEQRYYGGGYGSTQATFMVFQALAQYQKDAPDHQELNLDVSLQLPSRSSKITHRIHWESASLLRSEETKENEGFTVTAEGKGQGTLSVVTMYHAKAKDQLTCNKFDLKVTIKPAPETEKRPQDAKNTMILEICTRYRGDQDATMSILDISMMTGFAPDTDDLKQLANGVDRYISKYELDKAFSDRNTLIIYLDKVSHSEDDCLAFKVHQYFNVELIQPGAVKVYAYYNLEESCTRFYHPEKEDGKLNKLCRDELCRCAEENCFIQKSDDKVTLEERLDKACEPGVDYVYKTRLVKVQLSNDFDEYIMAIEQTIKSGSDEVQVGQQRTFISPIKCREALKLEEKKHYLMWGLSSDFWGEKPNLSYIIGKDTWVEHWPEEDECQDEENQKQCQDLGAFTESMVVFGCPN

human complement C3 [4] = molecular target: T1, human complement C3; assay: SPR (Biacore T100), target immobilized, single cycle kinetics, 1:1 Langmuir fit
Protocol: (§1) The kinetic parameters of the candidates are determined using a surface plasmon resonance (SPR) and Biacore T100 device. C3 and different variants thereof (Table 19) are immobilized as a ligand on a HC30M SPR sensor chip (XanTec bionanalytics, Germany) using EDC/[…] linking chemistry. Five increasing concentrations of each molecule (analyte) are consecutively injected using the single cycle kinetics (SCK) mode to determine the kinetic parameters. Regeneration between the candidates is done with 10 mM glycine*HCl, 2 M NaCl, pH 3.5. The data is fitted to a 1:1 Langmuir binding model and the kinetic parameters of on-rate (ka), off-rate (kd), and affinity […] were determined.

human C3b [5] = molecular target: T2, human C3b; assay: as above
Protocol: as §1

human complement C3 [6] = molecular target: T1, human complement C3; assay: as above; remark: listed apart in the source
Protocol: as §1

human C3b [7] = molecular target: T2, human C3b; assay: as above; remark: listed apart in the source
Protocol: as §1

cynomolgus C3 = molecular target: T3, cynomolgus C3 (cynomolgus (Macaca fascicularis)); assay: as above
T3 construct: also called cyno C3
Protocol: as §1

[8] = molecular target: T4, recombinant wild-type human C3 (human, UniProt P01024 23-1663, limits assumed); assay: as above
T4 construct: Expressed in CHO cells with an N-terminal 6×His tag; also called recombinant C3; wildtype C3
T4 sequence (P01024 other isoform, or with tags, fused parts or gaps limits assumed): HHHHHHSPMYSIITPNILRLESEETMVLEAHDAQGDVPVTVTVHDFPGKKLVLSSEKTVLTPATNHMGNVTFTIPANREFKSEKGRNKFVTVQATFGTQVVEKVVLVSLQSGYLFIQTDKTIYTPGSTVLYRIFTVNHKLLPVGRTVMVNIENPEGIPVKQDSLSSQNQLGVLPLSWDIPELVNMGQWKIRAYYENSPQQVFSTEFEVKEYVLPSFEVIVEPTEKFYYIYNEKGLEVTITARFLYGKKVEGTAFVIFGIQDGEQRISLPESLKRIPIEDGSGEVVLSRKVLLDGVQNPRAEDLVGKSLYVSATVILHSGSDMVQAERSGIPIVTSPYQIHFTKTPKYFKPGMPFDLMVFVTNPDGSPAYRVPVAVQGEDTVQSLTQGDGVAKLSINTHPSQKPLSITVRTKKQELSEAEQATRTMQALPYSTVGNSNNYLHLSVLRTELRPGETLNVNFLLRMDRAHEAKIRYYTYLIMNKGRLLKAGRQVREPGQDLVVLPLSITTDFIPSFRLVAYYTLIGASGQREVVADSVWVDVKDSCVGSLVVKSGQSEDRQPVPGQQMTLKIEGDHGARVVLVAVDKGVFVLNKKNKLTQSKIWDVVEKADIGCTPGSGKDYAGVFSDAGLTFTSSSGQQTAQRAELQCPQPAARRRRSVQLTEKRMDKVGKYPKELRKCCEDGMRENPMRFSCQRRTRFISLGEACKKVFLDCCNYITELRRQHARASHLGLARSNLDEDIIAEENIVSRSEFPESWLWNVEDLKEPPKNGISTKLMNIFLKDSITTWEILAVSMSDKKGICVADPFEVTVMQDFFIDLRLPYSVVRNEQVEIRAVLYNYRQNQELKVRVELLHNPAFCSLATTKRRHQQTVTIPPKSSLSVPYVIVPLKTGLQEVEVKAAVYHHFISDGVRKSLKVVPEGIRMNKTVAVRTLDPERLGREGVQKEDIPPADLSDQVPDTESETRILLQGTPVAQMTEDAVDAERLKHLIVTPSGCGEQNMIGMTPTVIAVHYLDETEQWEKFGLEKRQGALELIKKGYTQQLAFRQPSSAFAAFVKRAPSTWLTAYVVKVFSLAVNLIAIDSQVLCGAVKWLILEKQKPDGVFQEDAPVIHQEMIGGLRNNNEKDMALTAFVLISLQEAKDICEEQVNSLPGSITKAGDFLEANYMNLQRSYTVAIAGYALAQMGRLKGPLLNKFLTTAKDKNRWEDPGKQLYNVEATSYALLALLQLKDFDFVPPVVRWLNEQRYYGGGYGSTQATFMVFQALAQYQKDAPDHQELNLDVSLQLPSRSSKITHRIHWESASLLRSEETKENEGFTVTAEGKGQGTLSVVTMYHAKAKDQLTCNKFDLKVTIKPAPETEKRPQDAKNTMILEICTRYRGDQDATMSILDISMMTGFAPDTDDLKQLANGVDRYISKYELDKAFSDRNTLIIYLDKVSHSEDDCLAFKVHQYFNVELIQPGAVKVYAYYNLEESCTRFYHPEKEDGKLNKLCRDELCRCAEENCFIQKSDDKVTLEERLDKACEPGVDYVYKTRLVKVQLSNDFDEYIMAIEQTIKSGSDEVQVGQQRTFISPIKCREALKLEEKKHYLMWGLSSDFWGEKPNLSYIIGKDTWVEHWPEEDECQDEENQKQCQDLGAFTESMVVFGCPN
Protocol: as §1

human C3 P314L = molecular target: T5, human C3 P314L (human, UniProt P01024 23-1663, limits assumed); assay: as above
T5 construct: Expressed in CHO cells with an N-terminal 6×His tag; also called C3 SNP1 P314L; C3 SNP P314L
T5 sequence (P01024 other isoform, or with tags, fused parts or gaps P314L P314L limits assumed): as the sequence (P01024 other isoform, or with tags, fused parts or gaps limits assumed) above, with P298L counted along it
Protocol: as §1

human C3 R102G = molecular target: T6, human C3 R102G (human, UniProt P01024 23-1663, limits assumed); assay: as above
T6 construct: Expressed in CHO cells with an N-terminal 6×His tag; also called C3 SNP2 R102G; C3 SNP R102G
T6 sequence (P01024 other isoform, or with tags, fused parts or gaps R102G R102G limits assumed): as the sequence (P01024 other isoform, or with tags, fused parts or gaps limits assumed) above, with R86G counted along it
Protocol: as §1

human C3b [9] = molecular target: T2, human C3b; assay: SPR; reference: the same molecule on intact human C3
Protocol: as §1

T1 sequence (P01024 23-1663 limits assumed): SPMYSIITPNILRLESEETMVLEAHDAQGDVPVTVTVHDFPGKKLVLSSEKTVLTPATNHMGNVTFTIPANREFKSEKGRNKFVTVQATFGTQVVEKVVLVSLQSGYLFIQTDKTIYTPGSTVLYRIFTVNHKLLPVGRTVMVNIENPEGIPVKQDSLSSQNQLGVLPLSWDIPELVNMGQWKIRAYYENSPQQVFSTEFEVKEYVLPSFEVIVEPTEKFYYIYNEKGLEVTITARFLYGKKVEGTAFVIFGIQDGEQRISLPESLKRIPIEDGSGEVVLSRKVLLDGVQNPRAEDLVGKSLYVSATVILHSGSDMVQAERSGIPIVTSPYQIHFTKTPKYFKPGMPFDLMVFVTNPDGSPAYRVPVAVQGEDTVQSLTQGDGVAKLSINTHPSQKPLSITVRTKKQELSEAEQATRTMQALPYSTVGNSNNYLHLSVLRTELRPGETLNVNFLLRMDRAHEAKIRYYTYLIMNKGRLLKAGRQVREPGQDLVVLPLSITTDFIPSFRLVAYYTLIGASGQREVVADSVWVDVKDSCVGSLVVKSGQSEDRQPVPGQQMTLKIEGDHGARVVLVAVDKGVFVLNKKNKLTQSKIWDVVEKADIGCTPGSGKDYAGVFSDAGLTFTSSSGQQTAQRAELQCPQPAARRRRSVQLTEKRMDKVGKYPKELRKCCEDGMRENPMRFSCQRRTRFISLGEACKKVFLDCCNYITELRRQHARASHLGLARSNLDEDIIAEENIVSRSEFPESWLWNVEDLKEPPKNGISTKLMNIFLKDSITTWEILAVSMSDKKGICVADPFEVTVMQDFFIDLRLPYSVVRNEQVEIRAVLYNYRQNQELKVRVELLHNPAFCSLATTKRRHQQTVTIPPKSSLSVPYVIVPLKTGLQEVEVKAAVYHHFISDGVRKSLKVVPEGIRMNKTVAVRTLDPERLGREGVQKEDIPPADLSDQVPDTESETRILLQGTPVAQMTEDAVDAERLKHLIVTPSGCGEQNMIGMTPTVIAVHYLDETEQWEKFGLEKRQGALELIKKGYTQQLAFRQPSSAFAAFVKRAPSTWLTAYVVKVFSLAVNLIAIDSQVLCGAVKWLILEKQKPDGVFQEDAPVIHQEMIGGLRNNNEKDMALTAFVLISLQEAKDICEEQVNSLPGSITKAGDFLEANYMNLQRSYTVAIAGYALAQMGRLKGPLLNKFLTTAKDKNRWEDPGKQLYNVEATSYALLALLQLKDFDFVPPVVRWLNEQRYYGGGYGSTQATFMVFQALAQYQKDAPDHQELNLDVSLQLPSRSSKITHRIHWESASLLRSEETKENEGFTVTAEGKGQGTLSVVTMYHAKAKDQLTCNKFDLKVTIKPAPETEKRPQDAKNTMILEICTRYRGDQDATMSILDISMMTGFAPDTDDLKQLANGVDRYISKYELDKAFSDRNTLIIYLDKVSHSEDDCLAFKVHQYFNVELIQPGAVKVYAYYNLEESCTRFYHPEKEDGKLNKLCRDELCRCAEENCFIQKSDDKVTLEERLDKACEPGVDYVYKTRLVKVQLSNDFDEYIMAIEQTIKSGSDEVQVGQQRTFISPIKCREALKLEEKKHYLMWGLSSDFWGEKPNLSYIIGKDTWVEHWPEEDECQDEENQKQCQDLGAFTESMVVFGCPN

IC50 (nM), Alternative Pathway, MAC deposition (WEISLAB, human serum) (human complement C3 [1]): 344 nM | IC50 (nM), Classical Pathway, MAC deposition (WEISLAB, human serum) (human complement C3 [1]): 79 nM | IC50 (nM), Lectin Pathway, MAC deposition (WEISLAB, human serum) (human complement C3 [1]): 67 nM | Kd (human complement C3 [2]): 160 pM | Kd (human C3b [3]): 140 pM | Kd (human complement C3 [4]): 152 pM | Kd (human C3b [5]): 149 pM | Kd (human complement C3 [6]): 152 pM | koff (human complement C3 [6]): 4.7e-05 s⁻¹ | kon (human complement C3 [6]): 310000 M⁻¹ s⁻¹ | Kd (human C3b [7]): 149 pM | koff (human C3b [7]): 4.8e-05 s⁻¹ | kon (human C3b [7]): 320000 M⁻¹ s⁻¹ | Kd (cynomolgus C3): 267 pM | koff (cynomolgus C3): 6.3e-05 s⁻¹ | kon (cynomolgus C3): 240000 M⁻¹ s⁻¹ | Kd [8]: 148 pM | koff [8]: 4.9e-05 s⁻¹ | kon [8]: 330000 M⁻¹ s⁻¹ | Kd (human C3 P314L): 140 pM | koff (human C3 P314L): 4.2e-05 s⁻¹ | kon (human C3 P314L): 300000 M⁻¹ s⁻¹ | Kd (human C3 R102G): 135 pM | koff (human C3 R102G): 4.5e-05 s⁻¹ | kon (human C3 R102G): 330000 M⁻¹ s⁻¹
B1: Clone I (scFv)
scFv: MQLVLTQSPSASASLGASVKLTCTLSSAHKTYTIDWYQQQPEKCPRYLMQLKSDGSYTKGSGIPDRFSGSSSGAERYLTISSLQSEDEADYYCGTEGVGGYVFGGGTKLTVLGGGGGSGGGGSGGGGSGGGGSQVQLVESGGGSVQPGRSLRLSCAASGFTFSNYAMNWVRQAPGKGLEWVAVISYDGSNKYYADSVKGRFTISRDNSKNTLYLQMNSLRAEDTASYYCARAVGYHHARLDPWGCGTSVTVSS
notes: also called exemplary antibody of the invention (Clone I); scFv of the invention
IC50 (nM), Alternative Pathway, Hemolysis (rabbit erythrocytes, human serum) (human complement C3 [1]): 705 nM | IC50 (nM), Classical Pathway, Hemolysis (antibody-sensitized sheep erythrocytes, human serum) (human complement C3 [1]): 74 nM

fold lower affinity to C3b than to intact human C3 (human C3b [9]): > 100 fold | Kd (human complement C3 [4]): 340 pM
B2: Compound A3 Fab (Fab, V domains shown)
VH: QVQLVQSGAEVKKPGASVKVSCKASGYTFTDFYMDWVRQAPGQRLEWMGYIYPHNGGTTYNQQFTGRVTITVDKSASTAYMELSSLRSEDTAVYYCARRGGFDFDYWGQGTLVTVSS
VL: DIQMTQSPSSLSASVGDRVTITCKASENVDTYVSWYQQKPGKAPKLLIYGASNRYTGVPSRFSGSGSGTDFTFTISSLQPEDIATYHCGQSHSYPLTFGQGTKLEIKR
notes: also called NGM621 surrogate in a Fab format
